Target: IL-18BP (human)
Experiment: BLI

Binder	binding result
IL18R_tanVHHβ15α2 (antibody, V domains shown) V domain 1: DVQLQESGGGLVQPGGSLRLSCAASGRFFTINAMGWYRQTPGKQRELVAAITSDGSTTYQDSVKGRFTISRDNANRTANLYMNSLKSEDTAVYYCNADGRFNDNGYVKNFNIWGQGTQVTVSS V domain 2: DVQLQESGGGLVQAGGSLRLSCAASGFTLLDSYDIGWFRQAPGKKREEVSCISSSGGKSTYYADSVKGRFTISRDNANNTVYLQMNSLKPEDTAVYYCAADGAEGFWSCQSGGYDYWGQGTQVTVSS	no binding
IL18R_VHHα2β15 (antibody, V domains shown) V domain 1: DVQLQESGGGLVQAGGSLRLSCAASGFTLLDSYDIGWFRQAPGKKREEVSCISSSGGKSTYYADSVKGRFTISRDNANNTVYLQMNSLKPEDTAVYYCAADGAEGFWSCQSGGYDYWGQGTQVTVSS V domain 2: DVQLQESGGGLVQPGGSLRLSCAASGRFFTINAMGWYRQTPGKQRELVAAITSDGSTTYQDSVKGRFTISRDNANRTANLYMNSLKSEDTAVYYCNADGRFNDNGYVKNFNIWGQGTQVTVSS	no binding

— patent US20260347486 (published 2026)
